Biological target: the molecule itself
Experiment: cryo-EM structure; electron cryotomography and subtomogram averaging of the S-layer on intact N. maritimus cells; 3.3 Å at the centre of the hexamer, about 4.5 Å at the periphery

B1: Nitrosopumilus maritimus S-layer protein Nmar_1547 (NmSLP) (natural protein)
chain: MAANANLFVSAENSQFDNYMSGPQVIEVVVIDSDINDTDEAKGEPDVTVNGKVLRMVQAVDGNWYGYFADRDQAQIADSTATTADSGLDFGVFCASSSGTAALGFSTTETDGIAIPITIANATATGNGTQTGSSSGGAITTTCAANTLDASTANGTINVVREAKDPVAASGSVSVGQIGLKNGTANSGPNWPFIQLYELNPTGNVVVQYNKGGGVQSTTLTFDTVDQFAELSLDRTVFPRVSQVHATITDLWLNIDPTDEDSWTFATNTKNTTSSFNVDTFYQVFDENGASGGSALTLRTTLSSLMCEDNCVLTLDVDAQSSGTPVVTIQDNGDSILTQLNASSNTNANNASAFGISTETAKLGTGSIPVTITEQGPNSGVFGTYDESDKSVLKITDNAKRGTSASLDYNETPQTILVGFSFASIDIQPVTDEWTSGQEIPVVIVDADQNKNSRADEDLDLNNPDVTLIPALRTGDPFTIDEGGTPSLIFTNGTNGDDSIFDTGAINNTSAGQVGNFTLNINVTRFSSATNITSTESIDTFSKRLISAQTANSSANFDVDFAIIDLGSATLETLKETVVDEDNTAVGFNFFNYDVRSLGADTVSIALLNTTGNILPWVNNDTRNVDKNNAILLVSNSTNSQAYVDLTNAVSDAVYGSTNTDSNVNIGFAMYFTGVGDLAAKEVIVMDFFSFGFTDDGVQSSERFANQIIRIEAEETGDNTSTFEGSLEYVMVNQINIQDAGTFSGITPIADDPSFIVIEDLTDEDAPRVNYNDLGADGVTTPVSDQEEAPSHSGVVSLNADSYKIADTVVITVEDLDLNVDSDLIDIFTVVSDNSKATDDAVGSATTQSLSFGELGRLLDVTFDDVIWSTPDGANNTATGNDSDTCSTELSNAGITDTGLGATGFTLVETGAATGVFVGDFQIPSFWCRVSDTTTTPYTYAGDEETTTGLDIEVNYVDFRDASGEIVEVGDSAGVRANTGSVSLDRTVYPVPFGTIADSSKAANAAPNGRSVFPIHATGITSTIDSTEELPTGDLTIHVRINDPDFDENPAGEDAMDQDNALKISVIRGSDSVVLGYAGASERTGKIDVGGNNGTISNIRSFGEMDEIAPDAGIFELDVNIKFTDGPASAQCNSHDTLYTALDGTTGKADTNRFDDGAASGQEYCILQGDILQVEYTDPADASGDANTVTDSATFDLRNGVLQSDKSVYIIGSDMILTLIEPDFDLDNDSAETYDLDLIEWDSDAATTTMGNKGVTGAAAAFDPEPTDFRETGDSTGIFQIVIEIPESLSNDKLERGEEIILEYTDWGPSGSDYVGDEDEDVNLTIYTSNFGATVELDQKVYSWTDKVYITIVAPDHNFDSDLVDEIGETDSDPIKVSTRGFDLDNYKLVETGTDTGIFTGEVILTGFTAHDADGDGNTGDATGTTSGSGPTDGLLATDDDDGLTVSFEFSEDETIVGSALIRWNIGEVQWLEASYPASGTGVVRVIDPDMNLDPEAVDNFEVDVWSDSDAGGIDLTVTETNEATGIFEGTVFFTTLDESSGHRLRVSEGDTVTAEYEDNTLPDPYTTADELDITATSLIGTVVPPLERAPAANLRTVDAFGNSLDSVSVDQQVQISADLANGQDREQSFAYLVQIQDANGVTVSLAWITGSLSSGQSFSPALSWIPTEAGTYTATAFVWESVDNPTALSPPVSTTVNVS
modifications: 17 N-glycans per monomer on asparagine residues followed by a threonine or serine at the +2 position (positions not given)
stoichiometry N: 6

Reference: paper PMC11153153, “Membraneless channels sieve cations in ammonia-oxidizing marine archaea” (Nature, 2024)
